Source: patent US20250340631A1 (HARBOUR BIOMED SHANGHAI, published 2025)
Like-named read-outs stand apart in the source and are kept apart here.

Key:
[1] = target: T1, human CD3 on Jurkat cells (human, UniProt P07766 23-207); assay: FACS on Jurkat cells (CD3)
T1 construct: whole, on cells; on cells it stands in the whole CD3/TCR complex; also called CD3-expressing cells
Experimental: (§1) Antibodies were assayed for binding affinity by FACS. Test cells include HEK293/hCLDN18.2, HEK293/hCLDN18.1, NUGC4_D8 and Jurkat cells. […] The cell density was adjusted to 10⁶ cells/mL, and 50 μL of the cell suspension was added to each well of a 96-well plate. Antibodies were diluted to different concentrations with FACS buffer, and 50 μL of the antibody dilution was added to each well of the 96-well plate. After 2 h of incubation at 4° C., the plate was washed twice with FACS buffer. […] After 1 h of incubation at 4° C., the plate was washed twice with FACS buffer. The cells were resuspended in fixative solution, and then the fluorescence of the cells was monitored using an FACS instrument (ACEA NovoCyte).

human CLDN18.2 [2] = target: human CLDN18.2 (human); assay: cell-based or functional assay
human CLDN18.2 [3] = target: T2, human CLDN18.2 (human); assay: FACS on HEK293/hCLDN18.2 cells
T2 construct: the HEK293 line was made with a GenScript plasmid; also called hCLDN18.2

[4] = target: CLDN18.2 of SNU620 cells (methionine to leucine at amino acid 149) (human, UniProt P56856-2 1-261); assay: cell-based or functional assay
human CLDN18.2 [5] = target: T2, human CLDN18.2; assay: FACS on NUGC4_D8 cells
Experimental: as §1

[6] = target: T1, human CD3 on Jurkat cells; assay: FACS on Jurkat cells (CD3); remark: listed apart in the source
Experimental: as §1

human CLDN18.1 = target: T3, human CLDN18.1 (human, UniProt P56856 1-261); assay: FACS on HEK293/hCLDN18.1 cells
T3 construct: whole, on cells; also called hCLDN18.1
Experimental: as §1

[7] = target: T1, human CD3 on Jurkat cells; assay: FACS on Jurkat cells (CD3); remark: listed apart in the source
Experimental: as §1

Chain of CLDN18.2 of SNU620 cells (methionine to leucine at amino acid 149) (P56856 other isoform, or with tags, fused parts or gaps limits assumed): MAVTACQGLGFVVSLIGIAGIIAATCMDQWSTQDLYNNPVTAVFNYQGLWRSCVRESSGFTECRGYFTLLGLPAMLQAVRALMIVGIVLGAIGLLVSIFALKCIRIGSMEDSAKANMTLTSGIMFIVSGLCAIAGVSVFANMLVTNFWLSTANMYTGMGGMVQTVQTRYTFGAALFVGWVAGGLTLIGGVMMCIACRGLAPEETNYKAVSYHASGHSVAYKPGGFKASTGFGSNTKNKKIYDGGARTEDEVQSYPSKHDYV
T1 sequence (P07766 23-207): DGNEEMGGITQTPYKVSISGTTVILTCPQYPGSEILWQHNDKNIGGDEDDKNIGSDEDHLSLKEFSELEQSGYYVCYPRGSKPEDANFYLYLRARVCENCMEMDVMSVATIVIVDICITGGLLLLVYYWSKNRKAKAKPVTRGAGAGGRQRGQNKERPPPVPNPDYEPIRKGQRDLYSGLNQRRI
T3 sequence (P56856 whole entry): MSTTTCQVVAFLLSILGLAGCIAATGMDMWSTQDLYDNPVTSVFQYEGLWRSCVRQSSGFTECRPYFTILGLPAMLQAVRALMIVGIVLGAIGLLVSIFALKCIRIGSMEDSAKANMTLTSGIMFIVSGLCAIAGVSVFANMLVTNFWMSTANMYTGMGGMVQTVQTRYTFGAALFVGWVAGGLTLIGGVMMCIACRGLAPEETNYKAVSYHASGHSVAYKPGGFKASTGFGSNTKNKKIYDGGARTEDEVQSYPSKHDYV

Row | Binder | binding result [1] | TDCC, Titer EC50 (pM), NUGC4_D8 (human CLDN18.2 [2]) [pM] | EC50 (human CLDN18.2 [3]) [nM] | TDCC, Titer EC50 (pM), SNU620 [4] [pM] | EC50 (human CLDN18.2 [5]) [nM] | binding result [6] | binding result (human CLDN18.1) | binding result [7]
1 | PR005076 (bispecific antibody, human IgG1, lambda, L234A L235A, structure 1; CD3 Fab from PR003886, CLDN18.2 VH from PR004536; LALA) EVQLVESGGGLVQPGGSLRLSCAASGFTFSSYWMYWVRQVPGKGLVWVSHINSDGSTTQYADSVKGRFTISRDNAKNMLYLQMNSLRAEDTAVYYCARDFPVLGGSHFDFQHWGQGTLVTVSSGGGGSGGGGSGGGGSEVQLVESGGGLVQPGGSLRLSCAASGFTFSSYWMYWVRQVPGKGLVWVSHINSDGSTTQYADSVKGRFTISRDNAKNMLYLQMNSLRAEDTAVYYCARDFPVLGGSHFDFQHWGQGTLVTVSSASEPKSSDKTHTCPPCPAPEAAGGPSVFLFPPKPKDTLMISRTPEVTCVVVDVSHEDPEVKFNWYVDGVEVHNAKTKPREEQYNSTYRVVSVLTVLHQDWLNGKEYKCKVSNKALPAPIEKTISKAKGQPREPQVCTLPPSREEMTKNQVSLSCAVKGFYPSDIAVEWESNGQPENNYKTTPPVLDSDGSFFLVSKLTVDKSRWQQGNVFSCSVMHEALHNHYTQKSLSLSPGK heavy: not shown light: QAVVTQEPSLTVSPGGTVTLTCRSSTGAVTTSNYANWVQQKPGQAPRGLIGGTNKRAPWTPARFSGSLLGDKAALTLLGAQPEDEAEYFCALWYSNLWVFGGGTKLTVLGQPKAAPSVTLFPPSSEELQANKATLVCLISDFYPGAVTVAWKADSSPVKAGVETTTPSKQSNNKYAASSYLSLTPEQWKSHRSYSCQVTHEGSTVEKTVAPTECS | binds | 102 | – | – | – | – | – | –
2 | PR004603 (bispecific antibody, human IgG1, lambda, L234A L235A, structure 1 (2+1 Fab-Fc-Dual VH); CD3 Fab from PR003886, CLDN18.2 VH from PR004227; IgG1 knob/hole, LALA) EVQLVESGGGLVQPGGSLRLSCAASGFTFSSYWMHWVRQAPGKGLEWVSYINNDGSSTRYADSVKGRFTISRDNAKNTLYLQMNSLRAEDTAVYYCTEAPPYGNYERDYWGQGTLVTVSSGGGGSGGGGSGGGGSEVQLVESGGGLVQPGGSLRLSCAASGFTFSSYWMHWVRQAPGKGLEWVSYINNDGSSTRYADSVKGRFTISRDNAKNTLYLQMNSLRAEDTAVYYCTEAPPYGNYERDYWGQGTLVTVSSASEPKSSDKTHTCPPCPAPEAAGGPSVFLFPPKPKDTLMISRTPEVTCVVVDVSHEDPEVKFNWYVDGVEVHNAKTKPREEQYNSTYRVVSVLTVLHQDWLNGKEYKCKVSNKALPAPIEKTISKAKGQPREPQVCTLPPSREEMTKNQVSLSCAVKGFYPSDIAVEWESNGQPENNYKTTPPVLDSDGSFFLVSKLTVDKSRWQQGNVFSCSVMHEALHNHYTQKSLSLSPGK heavy: not shown light: QAVVTQEPSLTVSPGGTVTLTCRSSTGAVTTSNYANWVQQKPGQAPRGLIGGTNKRAPWTPARFSGSLLGDKAALTLLGAQPEDEAEYFCALWYSNLWVFGGGTKLTVLGQPKAAPSVTLFPPSSEELQANKATLVCLISDFYPGAVTVAWKADSSPVKAGVETTTPSKQSNNKYAASSYLSLTPEQWKSHRSYSCQVTHEGSTVEKTVAPTECS | binds | 251 | 33.1 | 17.8 | – | – | – | –

Now from value to binder:

Row | binding result [1] | TDCC, Titer EC50 (pM), NUGC4_D8 (human CLDN18.2 [2]) [pM] | EC50 (human CLDN18.2 [3]) [nM] | TDCC, Titer EC50 (pM), SNU620 [4] [pM] | EC50 (human CLDN18.2 [5]) [nM] | binding result [6] | binding result (human CLDN18.1) | binding result [7] | Binder
3 | binds | 142 | 15.7 | 34.5 | 90.7 | – | – | – | PR005072 (bispecific antibody, human IgG1, lambda, L234A L235A, structure 1; CD3 Fab from PR003886, CLDN18.2 VH from PR004533; LALA) EVQLVESGGGLVQPGGSLRLSCAASGFTFSSYWMHWVRQVPGKGLVWVSRINSDGSRTIYADSVKGRFTISRDNAKNTLYLQMNSLRAEDTAVYYCARGEDHDILTGYPIRGQGTTVTVSSGGGGSGGGGSGGGGSEVQLVESGGGLVQPGGSLRLSCAASGFTFSSYWMHWVRQVPGKGLVWVSRINSDGSRTIYADSVKGRFTISRDNAKNTLYLQMNSLRAEDTAVYYCARGEDHDILTGYPIRGQGTTVTVSSASEPKSSDKTHTCPPCPAPEAAGGPSVFLFPPKPKDTLMISRTPEVTCVVVDVSHEDPEVKFNWYVDGVEVHNAKTKPREEQYNSTYRVVSVLTVLHQDWLNGKEYKCKVSNKALPAPIEKTISKAKGQPREPQVCTLPPSREEMTKNQVSLSCAVKGFYPSDIAVEWESNGQPENNYKTTPPVLDSDGSFFLVSKLTVDKSRWQQGNVFSCSVMHEALHNHYTQKSLSLSPGK heavy: not shown light: QAVVTQEPSLTVSPGGTVTLTCRSSTGAVTTSNYANWVQQKPGQAPRGLIGGTNKRAPWTPARFSGSLLGDKAALTLLGAQPEDEAEYFCALWYSNLWVFGGGTKLTVLGQPKAAPSVTLFPPSSEELQANKATLVCLISDFYPGAVTVAWKADSSPVKAGVETTTPSKQSNNKYAASSYLSLTPEQWKSHRSYSCQVTHEGSTVEKTVAPTECS
4 | – | 21.9 | – | 313 | – | binds | – | – | PR005422 (bispecific antibody, human IgG1, lambda, L234A L235A, structure 1; CD3 Fab from PR003886, CLDN18.2 VH from PR007247; LALA) EVQLVESGGGLVQPGGSLRLSCAASGFTFSSYWMYWVRQVPGKGLVWVSHINPLGSTTQYADSVKGRFTISRDNAKNMLYLQMNSLRAEDTAVYYCARDFPVLGGSHFDFQHWGQGTLVTVSSGGGGSGGGGSGGGGSEVQLVESGGGLVQPGGSLRLSCAASGFTFSSYWMYWVRQVPGKGLVWVSHINPLGSTTQYADSVKGRFTISRDNAKNMLYLQMNSLRAEDTAVYYCARDFPVLGGSHFDFQHWGQGTLVTVSSASEPKSSDKTHTCPPCPAPEAAGGPSVFLFPPKPKDTLMISRTPEVTCVVVDVSHEDPEVKFNWYVDGVEVHNAKTKPREEQYNSTYRVVSVLTVLHQDWLNGKEYKCKVSNKALPAPIEKTISKAKGQPREPQVCTLPPSREEMTKNQVSLSCAVKGFYPSDIAVEWESNGQPENNYKTTPPVLDSDGSFFLVSKLTVDKSRWQQGNVFSCSVMHEALHNHYTQKSLSLSPGK heavy: not shown light: QAVVTQEPSLTVSPGGTVTLTCRSSTGAVTTSNYANWVQQKPGQAPRGLIGGTNKRAPWTPARFSGSLLGDKAALTLLGAQPEDEAEYFCALWYSNLWVFGGGTKLTVLGQPKAAPSVTLFPPSSEELQANKATLVCLISDFYPGAVTVAWKADSSPVKAGVETTTPSKQSNNKYAASSYLSLTPEQWKSHRSYSCQVTHEGSTVEKTVAPTECS
5 | – | 73.9 | – | 41 | 13.9 | – | no binding | binds | PR005521 (bispecific antibody, third chain is CD3 VH-CH1; PR001848 / PR004533; LALA) chain 1: EVQLVESGGGLVQPGGSLRLSCAASGFTFSSYWMHWVRQVPGKGLVWVSRINSDGSRTIYADSVKGRFTISRDNAKNTLYLQMNSLRAEDTAVYYCARGEDHDILTGYPIRGQGTTVTVSSGGGGSGGGGSGGGGSEVQLVESGGGLVQPGGSLRLSCAASGFTFSSYWMHWVRQVPGKGLVWVSRINSDGSRTIYADSVKGRFTISRDNAKNTLYLQMNSLRAEDTAVYYCARGEDHDILTGYPIRGQGTTVTVSSASEPKSSDKTHTCPPCPAPEAAGGPSVFLFPPKPKDTLMISRTPEVTCVVVDVSHEDPEVKFNWYVDGVEVHNAKTKPREEQYNSTYRVVSVLTVLHQDWLNGKEYKCKVSNKALPAPIEKTISKAKGQPREPQVCTLPPSREEMTKNQVSLSCAVKGFYPSDIAVEWESNGQPENNYKTTPPVLDSDGSFFLVSKLTVDKSRWQQGNVFSCSVMHEALHNHYTQKSLSLSPGK chain 2: not shown chain 3: EVQLLESGGGLVQPGGSLRLSCAASGFTFSTYAMNWVRQAPGKGLEWVSRIRSKYNNYATYYADSVKDRFTISRDDSKSTLYLQMNSLRAEDTAVYYCVRHGNFGNSYVSWFAYWGQGTLVTVSSASTKGPSVFPLAPSSKSTSGGTAALGCLVKDYFPEPVTVSWNSGALTSGVHTFPAVLQSSGLYSLSSVVTVPSSSLGTQTYICNVNHKPSNTKVDKKVEPKSC
